Test results published in article PMC3919625 (Cell reports, 2013).

Molecular target: gp120 from HIV-1 strain SF162 (clade B) (HIV-1 group M subtype B, isolate SF162, UniProt P19550, strain)
Test: SPR

Row | Binder | binding result
1 | 2G12 IgG monomer (antibody, V domains shown) VH: EVQLVESGGGLVKAGGSLILSCGVSNFRISAHTMNWVRRVPGGGLEWVASISTSSTYRDYADAVKGRFTVSRDDLEDFVYLQMHKMRVEDTAIYYCARKGSDRLSDNDPFDAWGPGTVVTVSP VL: VVMTQSPSTLSASVGDTITITCRASQSIETWLAWYQQKPGKAPKLLIYKASTLKTGVPSRFSGSGSGTEFTLTISGLQFDDFATYHCQHYAGYSATFGQGTRVEIK | binds
2 | 2G12 IgG dimer (antibody, V domains shown) VH: EVQLVESGGGLVKAGGSLILSCGVSNFRISAHTMNWVRRVPGGGLEWVASISTSSTYRDYADAVKGRFTVSRDDLEDFVYLQMHKMRVEDTAIYYCARKGSDRLSDNDPFDAWGPGTVVTVSP VL: VVMTQSPSTLSASVGDTITITCRASQSIETWLAWYQQKPGKAPKLLIYKASTLKTGVPSRFSGSGSGTEFTLTISGLQFDDFATYHCQHYAGYSATFGQGTRVEIK | binds
